Paper doi:10.1101/2021.11.09.467869 (bioRxiv, 2021)

Molecular target: the molecule itself
Assay: SEC + other: negative-staining EM

B1: L6 TIR domain (L6^TIR), residues 26-231 (domain or fragment, UniProt Q40253 26-231, looked up)
chain: PNSKDSIVNDDDDSTSEVDAISDSTNPSGSFPSVEYEVFLSFRGPDTREQFTDFLYQSLRRYKIHTFRDDDELLKGKEIGPNLLRAIDQSKIYVPIISSGYADSKWCLMELAEIVRRQEEDPRRIILPIFYMVDPSDVRHQTGCYKKAFRKHANKFDGQTIQNWKDALKKVGDLKGWHIGKNDKQGAIADKVSADIWSHISKENLI
B1: binds.
